From paper PMC13178787 (Nature, 2024) come the findings set out here.

Sequences and labels used below:
B1: β-dystroglycan (natural protein, mouse (endogenous in skeletal muscle), UniProt Q62165 652-893, looked up)
chain: SIVVEWTNNTLPLEPCPKEQIIGLSRRIADENGKPRPAFSNALEPDFKALSIAVTGSGSCRHLQFIPVAPPSPGSSAAPATEVPDRDPEKSSEDDVYLHTVIPAVVVAAILLIAGIIAMICYRKKRKGKLTLEDQATFIKKGVPIIFADELDDSKPPPSSSMPLILQEEKAPLPPPEYPNQSMPETTPLNQDTVGEYTPLRDEDPNAPPYQPPPPFTAPMEGKGSRPKNMTPYRSPPPYVPP
modifications: glycosylated at N659
B2: β-sarcoglycan (natural protein, mouse (endogenous in skeletal muscle), UniProt P82349 1-320, looked up)
chain: MAAAAAAAAATEQQGSNGPVKKSMREKAVERRNVNKEHNSNFKAGYIPIDEDRLHKTGLRGRKGNLAICVIVLLFILAVINLLITLVIWAVIRIGPNGCDSMEFHESGLLRFKQVSDMGVIHPLYKSTVGGRRNENLVITGNNQPIVFQQGTTKLSVEKNKTSITSDIGMQFFDPRTHNILFSTDYETHEFHLPSGVKSLNVQKASTERITSNATSDLNIKVDGRAIVRGNEGVFIMGKTIEFHMGGDVELKAENSIILNGTVMVSPTRLPSSSSGDQSGSGDWVRYKLCMCADGTLFKVQVTGHNMGCQVSDNPCGNTH
modifications: glycosylated at N160, N213, N260

For one assay, the target named is dystrophin (mouse (endogenous in skeletal muscle), UniProt P11531 1-3678). Nature of the assay: cryo-EM structure.
The assay “β-dystroglycan” addresses B1. The assay can be described thus: cryo-EM structure.
In assay [1] the target is T1, GST-tagged dystrophin (3049–3299) (mouse, UniProt P11531 3049-3299).
T1 sequence (looked up): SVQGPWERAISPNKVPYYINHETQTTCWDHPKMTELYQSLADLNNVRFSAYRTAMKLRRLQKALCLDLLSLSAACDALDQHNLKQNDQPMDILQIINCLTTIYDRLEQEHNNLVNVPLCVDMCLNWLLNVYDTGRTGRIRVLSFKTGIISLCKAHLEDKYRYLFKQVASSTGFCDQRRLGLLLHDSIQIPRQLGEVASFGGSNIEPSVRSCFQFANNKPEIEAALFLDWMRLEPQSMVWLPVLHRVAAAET
The assay can be described thus: SEC.

For the assay “β-sarcoglycan”, the target named is B2. Nature of the assay: cryo-EM structure.

dystrophin, sequence (P11531 whole entry): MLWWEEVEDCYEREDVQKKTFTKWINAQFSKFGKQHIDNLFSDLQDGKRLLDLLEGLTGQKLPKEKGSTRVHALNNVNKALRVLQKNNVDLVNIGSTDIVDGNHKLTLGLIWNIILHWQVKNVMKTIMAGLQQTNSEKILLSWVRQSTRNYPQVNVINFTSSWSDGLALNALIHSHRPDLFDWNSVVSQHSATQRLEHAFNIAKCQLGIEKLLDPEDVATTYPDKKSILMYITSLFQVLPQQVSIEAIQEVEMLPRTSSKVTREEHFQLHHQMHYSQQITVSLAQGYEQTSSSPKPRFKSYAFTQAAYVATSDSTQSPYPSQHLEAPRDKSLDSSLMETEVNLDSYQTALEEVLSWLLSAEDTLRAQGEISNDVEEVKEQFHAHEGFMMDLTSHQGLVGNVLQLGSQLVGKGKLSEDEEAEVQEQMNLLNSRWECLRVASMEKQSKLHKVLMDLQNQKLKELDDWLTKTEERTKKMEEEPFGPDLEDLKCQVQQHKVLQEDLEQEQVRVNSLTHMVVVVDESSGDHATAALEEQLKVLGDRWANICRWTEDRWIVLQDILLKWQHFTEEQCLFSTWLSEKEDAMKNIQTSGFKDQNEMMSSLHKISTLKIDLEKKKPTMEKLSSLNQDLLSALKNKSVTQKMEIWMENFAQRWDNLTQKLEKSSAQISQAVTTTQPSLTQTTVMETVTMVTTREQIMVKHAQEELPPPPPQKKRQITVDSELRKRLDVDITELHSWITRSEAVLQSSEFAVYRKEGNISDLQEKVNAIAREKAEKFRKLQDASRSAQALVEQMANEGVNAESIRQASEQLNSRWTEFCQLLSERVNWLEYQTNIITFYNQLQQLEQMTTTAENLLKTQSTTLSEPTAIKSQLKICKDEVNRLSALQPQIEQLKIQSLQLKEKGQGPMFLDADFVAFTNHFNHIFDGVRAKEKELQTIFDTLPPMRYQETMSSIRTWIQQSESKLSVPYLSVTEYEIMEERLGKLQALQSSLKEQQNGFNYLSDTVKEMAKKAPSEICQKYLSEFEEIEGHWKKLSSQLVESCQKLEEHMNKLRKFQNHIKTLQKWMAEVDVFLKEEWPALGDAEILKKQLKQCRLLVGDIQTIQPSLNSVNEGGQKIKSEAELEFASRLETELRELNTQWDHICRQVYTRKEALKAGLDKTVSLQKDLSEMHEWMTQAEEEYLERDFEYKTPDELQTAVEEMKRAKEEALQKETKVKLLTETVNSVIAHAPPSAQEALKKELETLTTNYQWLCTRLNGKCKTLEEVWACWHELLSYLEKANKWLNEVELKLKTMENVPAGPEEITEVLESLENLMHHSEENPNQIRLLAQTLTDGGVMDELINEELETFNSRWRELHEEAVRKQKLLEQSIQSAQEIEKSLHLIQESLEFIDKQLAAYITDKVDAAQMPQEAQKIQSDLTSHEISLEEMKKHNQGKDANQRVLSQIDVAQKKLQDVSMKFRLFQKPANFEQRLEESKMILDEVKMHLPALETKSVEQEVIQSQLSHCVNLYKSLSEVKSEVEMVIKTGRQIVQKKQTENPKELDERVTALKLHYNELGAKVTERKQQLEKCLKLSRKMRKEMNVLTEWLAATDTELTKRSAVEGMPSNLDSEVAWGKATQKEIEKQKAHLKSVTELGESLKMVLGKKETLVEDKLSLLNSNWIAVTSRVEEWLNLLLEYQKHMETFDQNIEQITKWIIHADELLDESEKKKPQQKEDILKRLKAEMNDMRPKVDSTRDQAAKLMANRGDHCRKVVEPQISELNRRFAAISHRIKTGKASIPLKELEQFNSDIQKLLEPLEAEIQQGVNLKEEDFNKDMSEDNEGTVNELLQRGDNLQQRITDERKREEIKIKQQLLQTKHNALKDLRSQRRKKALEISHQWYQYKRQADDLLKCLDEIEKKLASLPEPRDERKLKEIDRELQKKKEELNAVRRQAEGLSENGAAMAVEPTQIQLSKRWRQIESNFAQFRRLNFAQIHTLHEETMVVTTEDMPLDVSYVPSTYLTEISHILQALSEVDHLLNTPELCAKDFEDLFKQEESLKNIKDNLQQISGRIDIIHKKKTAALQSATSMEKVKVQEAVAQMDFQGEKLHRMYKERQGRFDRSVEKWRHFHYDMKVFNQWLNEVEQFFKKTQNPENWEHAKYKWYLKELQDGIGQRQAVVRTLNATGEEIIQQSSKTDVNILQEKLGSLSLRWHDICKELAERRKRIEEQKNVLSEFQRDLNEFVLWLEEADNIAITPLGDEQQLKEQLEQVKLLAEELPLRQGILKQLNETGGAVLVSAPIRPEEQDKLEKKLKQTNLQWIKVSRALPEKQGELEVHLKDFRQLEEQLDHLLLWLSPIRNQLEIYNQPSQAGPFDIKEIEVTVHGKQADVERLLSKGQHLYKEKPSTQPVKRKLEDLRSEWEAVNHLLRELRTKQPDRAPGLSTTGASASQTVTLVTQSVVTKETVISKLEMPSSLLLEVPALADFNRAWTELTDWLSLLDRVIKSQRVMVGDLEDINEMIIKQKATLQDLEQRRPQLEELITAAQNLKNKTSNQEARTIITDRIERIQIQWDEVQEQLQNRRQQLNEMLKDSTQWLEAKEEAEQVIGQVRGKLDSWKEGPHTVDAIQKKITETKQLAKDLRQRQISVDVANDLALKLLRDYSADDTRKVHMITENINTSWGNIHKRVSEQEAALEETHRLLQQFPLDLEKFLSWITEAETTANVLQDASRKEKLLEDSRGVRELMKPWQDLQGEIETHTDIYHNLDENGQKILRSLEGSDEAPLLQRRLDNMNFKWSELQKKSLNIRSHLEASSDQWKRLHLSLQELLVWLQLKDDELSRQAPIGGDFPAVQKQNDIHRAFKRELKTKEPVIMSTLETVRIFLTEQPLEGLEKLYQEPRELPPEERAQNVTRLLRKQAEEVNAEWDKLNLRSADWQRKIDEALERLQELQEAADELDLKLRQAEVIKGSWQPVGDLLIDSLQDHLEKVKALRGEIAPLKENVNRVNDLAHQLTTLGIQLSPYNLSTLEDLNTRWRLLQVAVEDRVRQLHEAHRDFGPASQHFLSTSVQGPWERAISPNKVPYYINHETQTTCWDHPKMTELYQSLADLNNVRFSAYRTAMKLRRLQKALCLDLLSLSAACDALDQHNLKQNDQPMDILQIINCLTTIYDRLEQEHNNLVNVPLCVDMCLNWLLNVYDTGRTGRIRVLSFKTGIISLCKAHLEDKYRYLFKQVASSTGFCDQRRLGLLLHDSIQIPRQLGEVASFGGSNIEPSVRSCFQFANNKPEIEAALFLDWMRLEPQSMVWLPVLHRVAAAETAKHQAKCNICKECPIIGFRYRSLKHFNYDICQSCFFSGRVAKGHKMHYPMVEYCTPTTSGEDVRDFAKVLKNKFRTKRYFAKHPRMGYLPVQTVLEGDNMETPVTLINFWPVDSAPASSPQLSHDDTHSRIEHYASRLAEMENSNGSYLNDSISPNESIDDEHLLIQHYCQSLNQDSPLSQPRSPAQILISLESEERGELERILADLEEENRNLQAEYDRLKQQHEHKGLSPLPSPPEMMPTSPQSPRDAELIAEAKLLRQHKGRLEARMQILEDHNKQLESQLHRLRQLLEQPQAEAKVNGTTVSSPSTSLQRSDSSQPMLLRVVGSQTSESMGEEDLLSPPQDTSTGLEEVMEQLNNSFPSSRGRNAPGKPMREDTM

On to B1, for which the binding result in the assay with dystrophin was “binds”.

B2: the binding result in the assay with dystrophin is recorded as “binds”.

B3: sarcospan (natural protein, mouse (endogenous in skeletal muscle), UniProt Q62147 1-216, looked up)
chain: MGRKPSPRAQELPEEEARTCCGCRFPLLLALLQLALGIAVTVLGFLMASISPSLLVRDTPFWAGSIVCVVAYLGLFMLCVSYQVDERTCVQFSMKVFYFLLSALGLMVCMLAVAFAAHHYSLLAQFTCETSLDSCQCKLPSSEPLSRAFVYRDVTDCTSVTGTFKLFLIIQMVLNLVCGLVCLLACFVMWKHRYQVFYVGVGLRSLMASDGQLPKA
Take B3: the binding result in the assay with β-dystroglycan is reported as “binds”.

B4: 6×His-tagged dystrobrevin (1–237) (domain or fragment, mouse, UniProt Q9D2N4 1-237, looked up)
chain: MIEDSGKRGNTMAERRQLFAEMRAQDLDRIRLSTYRTACKLRFVQKKCNLHLVDIWNVIEALRENALNNLDPNIELNVARLEAVLSTIFYQLNKRMPTTHQIHVEQSISLLLNFLLAAFDPEGHGKISVFAVKMALATLCGGKIMDKLRYIFSMISDSSGVMVYGRYDQFLREVLKLPTAVFEGPSFGYTEQSARSCFSQQKKVTLNGFLDTLMSDPPPQCLVWLPLLHRLANVENV
For B4, in assay [1], the binding result is on record as “binds”.

B5: δ-sarcoglycan (natural protein, mouse (endogenous in skeletal muscle), UniProt P82347 1-289, looked up)
chain: MPQEQYSHHRSTMPSSEGPHIYKVGIYGWRKRCLYFFVLLLMILILVNLAMTIWILKVMNFTIDGMGNLRITEKGLKLEGDSEFLQPLYAKEIKSRPGNALYFKSARNVTVNILNDQTKVLTQLVTGPKAVEAYGKRFEVKTVSGKLLFSADDSEVVVGAERLRVLGAEGTVFPKSIETPNVRADPFKELRLESPTRSLVMEAPKGVEINAEAGNMEAICRSELRLESKDGEIKLDAAKIKLPRLPRGSYTPTGTRQKVFEVCVCANGRLFLSQAGTGSTCQINTSVCL
modifications: glycosylated at N108
Consider B5, for which the binding result with β-sarcoglycan is listed as “binds”.

B6: dystrobrevin (natural protein, mouse (endogenous in skeletal muscle), UniProt Q9D2N4 1-746, looked up)
chain: MIEDSGKRGNTMAERRQLFAEMRAQDLDRIRLSTYRTACKLRFVQKKCNLHLVDIWNVIEALRENALNNLDPNIELNVARLEAVLSTIFYQLNKRMPTTHQIHVEQSISLLLNFLLAAFDPEGHGKISVFAVKMALATLCGGKIMDKLRYIFSMISDSSGVMVYGRYDQFLREVLKLPTAVFEGPSFGYTEQSARSCFSQQKKVTLNGFLDTLMSDPPPQCLVWLPLLHRLANVENVFHPVECSYCHSESMMGFRYRCQQCHNYQLCQDCFWRGHAGGSHSNQHQMKEYTSWKSPAKKLTNALSKSLSCASSREPLHPMFPDQPEKPLNLAHIVPPRPVTSMNDTLFSHSVPSSGSPFITRSSPPKDSEVEQNKMLARAAPAFLKGRGIQYSLNVADRLADEHVLIGLYVNMLRNDPPCMLESSNRLDEEHRLIARYAARLAAESSSSQPTQQRSAPDISFTIDANKQQRQLIAELENKNREILQEIQRLRVEHEQASQPTPEKAQQNPTLLAELRLLRQRKDELEQRMSALQESRRELMVQLEGLMKLLKEEELKQGTQGASSPRSSPSHTISRPIPMPIRSASACPTPTHTPQDSLTGVGGDVQEAFAQSSRRNLRSDLLVAADSITNTMSSLVKELNSEVASETESTVDSEFSRPQFEDLAPSPTSEKAFLAQIHSRKPGYIHGGAASTTHGDMVPEDGDPYTQPEDGNYENESVRQLENELQLEEYLKQKLQDEAYQVSLQG
For B6, the binding result with dystrophin is reported as “binds”.
